From patent publication US20140093540A1 (published 2014) come the findings set out here.

Assay [1] deals with human BSG on erythrocytes (human) (UniProt P35613). The assay can be described thus: cell-based or functional assay.
Assay [2] addresses P. falciparum invasion ligand Rh5 (of the parasites in the invasion assays) (Plasmodium falciparum). The assay can be described thus: cell-based or functional assay.
Assay [3] deals with BSG-SCd4d3+4bio (human; rat) (UniProt P35613). As to the kind of experiment: SPR (BIAcore T100, 37° C.), kinetic analysis at 100 µl/min, global 1:1 fit. On the technique in general: Surface plasmon resonance follows binding to a sensor surface in real time, without labels.
For assay [4] the target is unchanged. The assay can be described thus: SPR (BIAcore T100, 37° C.), Rh5 injected over BSG-S captured on streptavidin, equilibrium, non-linear curve fit.
Assay [5] addresses BSG-L bait (biotinylated ectodomain of the long, three domain isoform of BASIGIN) (human; rat) (UniProt P35613). As to the kind of experiment: SPR (BIAcore T100, 37° C.), Rh5 injected over the immobilised three domain isoform of BSG.
For assay [6], the target named is T1, biotinylated CD4 domains 3+4 alone (negative control) (rat, UniProt P05540 207-394, enzymatically biotinylated on the C-terminal biotinylation sequence).
T1 construct: domain: domains 3 and 4; Immobilised on streptavidin-coated Nile Red fluorescent microbeads in the assay; also called Cd4d3+4; CD4-coated microbeads
T1 sequence: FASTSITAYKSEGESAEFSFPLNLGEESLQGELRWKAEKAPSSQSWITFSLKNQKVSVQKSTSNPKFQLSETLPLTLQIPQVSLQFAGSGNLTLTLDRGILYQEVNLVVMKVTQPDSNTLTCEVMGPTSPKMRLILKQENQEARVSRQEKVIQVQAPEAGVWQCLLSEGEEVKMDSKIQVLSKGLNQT
The assay can be described thus: flow cytometry, protein-coated fluorescent microbeads on human erythrocytes. (In flow cytometry, cells or beads pass a laser one at a time.)

Chain of human BSG on erythrocytes (human) (P35613 22-385): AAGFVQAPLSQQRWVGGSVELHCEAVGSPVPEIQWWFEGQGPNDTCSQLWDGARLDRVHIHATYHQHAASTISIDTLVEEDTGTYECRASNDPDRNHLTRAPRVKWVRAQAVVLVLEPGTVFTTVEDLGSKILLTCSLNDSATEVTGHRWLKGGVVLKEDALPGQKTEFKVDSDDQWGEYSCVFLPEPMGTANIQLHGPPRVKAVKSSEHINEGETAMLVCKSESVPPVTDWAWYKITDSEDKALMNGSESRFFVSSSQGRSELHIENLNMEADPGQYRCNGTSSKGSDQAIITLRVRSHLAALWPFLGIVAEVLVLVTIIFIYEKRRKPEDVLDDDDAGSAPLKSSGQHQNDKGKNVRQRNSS

On to MEM-M6/6 (antibody), for which, in assay [1], the concentration that prevented all detectable invasion, 3D7 strain, microscopy was greater than 10 µg/mL.
Turning to “BSG-S-Cd4d3+4-COMP-His (from UniProt P35613 138-325; P05540 207-394; P35444 28-72) (receptor)”, in assay [2], the inhibition of erythrocyte invasion, Dd2 P. falciparum strain, IC50 came to 1000 nM.
For “PfRh5Cd4d3+4-6H (from UniProt P05540 207-394) (ligand)”, in assay [3], the interaction half-life was found to be 2.9 s, the koff came out at 0.24 s⁻¹ and the on-rate constant (kon) was 225000 M⁻¹ s⁻¹. In assay [4], this molecule returned a Kd of 1140 nM. In addition, in assay [5], the Kd stood at 710 nM and the off-rate constant (koff) came to 0.144 s⁻¹.

B1: GLYCOPHORIN A (GYPA) on human erythrocytes (receptor)
chain: LSTTEVAMHTSTSSSVTKSYISSQTNDTHKRDTYAATPRAHEVSEISVRTVYPPEEETGERVQLAHHFSEPEITLIIFGVMAGVIGTILLISYGIRRLIKKSPSDVKPLPSPDTDVPLSSVEIENPETSDQ
modifications: sialylated (binding was lost after neuraminidase treatment of the cells)
notes: whole, on cells; also called native GYPA
Regarding B1, in assay [6], the binding result is “no binding”.

For orientation: koff means the first-order rate constant of dissociation. A high value points to a short-lived complex. By kon is commonly meant a measure of how fast the partners come together. Usually Kd stands for the concentration at which binding is half-saturated. A lower Kd goes with higher affinity.
